In patent publication US20250353900A1 (HUMABS BIOMED, published 2025):

Legend:
[1] = biological target: T1, Recombinant human FcγRIIIa (F158) (human, UniProt P08637 17-208); assay: BLI (Octet), His-tagged FcγR on anti-penta-His sensors, mAb cross-linked with anti-F(ab')2
T1 construct: also called FcγRIIIa allele F158; FcγRIIAa allele F158
Experimental: (§1) His-tagged human FcγRs ((A) FcγRIIa allele H131; (B) FcγRIIa allele R131; (C) FcγRIIIa allele F158; (D) FcγRIIIa allele V158; (E) FcγRIIb) at 2 μg/ml were captured onto anti-penta-His sensors for 6 minutes. FcγR-loaded sensors were then exposed for 5 minutes to a solution of kinetics buffer (pH 7.1) containing 2 μg/ml of each mAb (left part of the plot) in the presence 1 μg/ml of affiniPure F(ab′)₂ Fragment Goat Anti-Human IgG, F (ab′) 2 fragment specific (to cross-link human mAbs through the Fab fragment), followed by a dissociation step in the same buffer for additional 4 minutes (right part of the plot). Association and dissociation profiles were measured in real time as change in the interference pattern using an Octet® RED96 (FortéBio).
(§2) Briefly, His-tagged human FcγRs (FcγRIIa allele H131, FcγRIIa allele R131, FcγRIIAa allele F158, FcγRIIIa allele V158 and FcγRIIb) at 2 μg/ml were captured onto anti-penta-His sensors for 6 minutes. FcγR-loaded sensors were then exposed for 4 minutes to a solution of kinetics buffer (pH 7.1) containing 2 μg/ml of each mAb in the presence 1 μg/ml of affiniPure F(ab′)₂ Fragment Goat Anti-Human IgG, F(ab′)₂ fragment-specific (to cross-link human mAbs through the Fab fragment), followed by a dissociation step in the same buffer for 4 additional minutes (right part of the plot). Association and dissociation profiles were measured in real time as change in the interference pattern using an Octet® RED96 (FortéBio).

[2] = biological target: T2, Recombinant human FcγRIIa (H131) (human, UniProt P12318 34-218); assay: as above
T2 construct: also called FcγRIIa allele H131
T2 sequence (looked up): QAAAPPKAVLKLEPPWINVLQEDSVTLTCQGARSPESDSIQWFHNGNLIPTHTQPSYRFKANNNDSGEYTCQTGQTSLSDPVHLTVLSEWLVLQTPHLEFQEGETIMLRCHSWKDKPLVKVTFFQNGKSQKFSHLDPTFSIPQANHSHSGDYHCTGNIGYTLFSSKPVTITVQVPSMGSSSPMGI
Experimental: as §1, §2

[3] = biological target: T3, Recombinant human FcγRIIIa (V158) (human, UniProt P08637 17-208); assay: as above
T3 construct: also called FcγRIIIa allele V158
Experimental: as §1, §2

[4] = biological target: T4, Human complement component C1q (human, UniProt P02745 23-245; P02746 28-253; P02747 29-245); assay: BLI (Octet), IgG captured on anti-human Fab (CH1) sensors
T4 construct: also called human complement protein C1q
Experimental: IgG-loaded sensors were then exposed for 4 minutes to a solution of kinetics buffer (pH 7.1) containing 3 μg/ml of purified human C1q (left part of the plot), followed by a dissociation step in the same buffer for 4 additional minutes (right part of the plot). Association and dissociation profiles were measured in real time as change in the interference pattern using an Octet® RED96 (FortéBio).

[5] = biological target: HBV HBsAg of genotype A on engineered hepatitis D virus (hepatitis B virus genotype A); assay: cell-based or functional assay
[6] = biological target: HBV HBsAg of genotype C on engineered hepatitis D virus (hepatitis B virus genotype C); assay: cell-based or functional assay

T1 sequence (P08637 17-208 limits assumed): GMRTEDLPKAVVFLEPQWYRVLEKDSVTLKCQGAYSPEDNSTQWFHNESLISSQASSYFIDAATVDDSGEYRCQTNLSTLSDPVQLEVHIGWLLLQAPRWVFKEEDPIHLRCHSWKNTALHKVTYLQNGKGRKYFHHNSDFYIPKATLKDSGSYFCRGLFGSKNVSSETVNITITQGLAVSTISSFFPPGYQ
T4 sequence (P02745 23-245 limits assumed, chain 1 of 3): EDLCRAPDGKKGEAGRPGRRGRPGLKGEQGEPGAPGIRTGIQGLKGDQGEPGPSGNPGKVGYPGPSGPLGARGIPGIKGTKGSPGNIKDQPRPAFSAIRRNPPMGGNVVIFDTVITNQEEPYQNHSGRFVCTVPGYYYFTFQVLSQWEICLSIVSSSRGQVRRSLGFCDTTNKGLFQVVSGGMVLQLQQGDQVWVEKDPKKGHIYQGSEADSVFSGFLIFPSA
T4 sequence (P02746 28-253 limits assumed, chain 2 of 3): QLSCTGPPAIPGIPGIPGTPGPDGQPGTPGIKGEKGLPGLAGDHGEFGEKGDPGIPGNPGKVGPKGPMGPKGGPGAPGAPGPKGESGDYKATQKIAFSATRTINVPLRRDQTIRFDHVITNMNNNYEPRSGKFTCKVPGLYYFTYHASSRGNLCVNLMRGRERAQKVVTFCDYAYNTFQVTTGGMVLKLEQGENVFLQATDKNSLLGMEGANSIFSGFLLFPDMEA
T4 sequence (P02747 29-245 limits assumed, chain 3 of 3): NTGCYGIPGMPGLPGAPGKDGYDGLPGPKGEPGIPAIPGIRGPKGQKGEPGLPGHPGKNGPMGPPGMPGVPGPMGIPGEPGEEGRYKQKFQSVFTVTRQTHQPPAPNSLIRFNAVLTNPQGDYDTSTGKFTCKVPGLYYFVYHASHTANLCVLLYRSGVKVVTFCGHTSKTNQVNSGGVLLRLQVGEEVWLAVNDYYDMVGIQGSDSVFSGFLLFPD
T3 sequence (P08637 17-208 F176V limits assumed): as the sequence (P08637 17-208 limits assumed) above, with F160V counted along it

B1: HBC34-V35-MLNS-GAALIE (antibody, human IgG1, lambda)
heavy: ELQLVESGGGWVQPGGSQRLSCAASGRIFRSFYMSWVRQAPGKGLEWVATINQDGSEKLYVDSVKGRFTISRDNAKNSLFLQMNNLRVEDTAVYYCAAWSGNSGGMDVWGQGTTVSVSSASTKGPSVFPLAPSSKSTSGGTAALGCLVKDYFPEPVTVSWNSGALTSGVHTFPAVLQSSGLYSLSSVVTVPSSSLGTQTYICNVNHKPSNTKVDKKVEPKSCDKTHTCPPCPAPELLAGPSVFLFPPKPKDTLMISRTPEVTCVVVDVSHEDPEVKFNWYVDGVEVHNAKTKPREEQYNSTYRVVSVLTVLHQDWLNGKEYKCKVSNKALPLPEEKTISKAKGQPREPQVYTLPPSRDELTKNQVSLTCLVKGFYPSDIAVEWESNGQPENNYKTTPPVLDSDGSFFLYSKLTVDKSRWQQGNVFSCSVLHEALHSHYTQKSLSLSPGK
light: SYELTQPPSVSVSPGQTVSIPCSGDKLGNKNVAWFQHKPGQSPVLVIYEVKYRPSGIPERFSGSNSGNTATLTISGTQAMDEAAYFCQTFDSTTVVFGGGTRLTVLGQPKAAPSVTLFPPSSEELQANKATLVCLISDFYPGAVTVAWKADSSPVKAGVETTTPSKQSNNKYAASSYLSLTPEQWKSHRSYSCQVTHEGSTVEKTVAPTECS
binding result [1]: binds | binding result [2]: binds | binding result [3]: binds | binding result [4]: no binding (tested: 3 µg/ml of purified human C1q) | neutralization EC50, HDV engineered to express HBV HBsAg [5]: 2.34 ng/mL | neutralization EC50, HDV engineered to express HBV HBsAg [6]: 0.92 ng/mL
